Source: publication PMC5941314, “Structural insights into the nanomolar affinity of RING E3 ligase ZNRF1 for Ube2N and its functional implications” (Biochemical Journal, 2018)
Changes are numbered by the printed parent chain.

Experiments:
Settings in all cases: both partners purified
Ube2N [1] = target: T1, Ube2N (UniProt P61088 1-152); experiment: ITC; ZNRF1^CTD in the cell, Ube2N in the syringe; 25°C; Na-phosphate pH 8.0, 450 mM NaCl; single site model
T1 construct: Ube2N, ubiquitin-conjugating enzyme E2 N; also called wtUbe2N; source: E. coli Rossetta2 (DE3), purified (ion exchange, SEC)
T1 sequence (looked up): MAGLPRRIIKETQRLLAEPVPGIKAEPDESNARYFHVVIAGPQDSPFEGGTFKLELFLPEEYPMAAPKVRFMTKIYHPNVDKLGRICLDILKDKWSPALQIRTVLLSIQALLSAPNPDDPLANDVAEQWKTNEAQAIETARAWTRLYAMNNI

Ube2N^S96R = target: T2, Ube2N^S96R (UniProt P61088 1-152, S96R); experiment: ITC; ZNRF1 construct (10–30 µM) in the cell, E2 in the syringe; 25°C; 20 mM sodium phosphate pH 8.0, 150 mM NaCl; single site model
T2 construct: Ube2N, ubiquitin-conjugating enzyme E2 N, with S96R; source: E. coli Rossetta2 (DE3), purified (ion exchange, SEC)
T2 sequence (looked up): T1 sequence (looked up) with S96R

Ube2N^R14D = target: T3, Ube2N^R14D (UniProt P61088 1-152, R14D); experiment: as above
T3 construct: Ube2N, ubiquitin-conjugating enzyme E2 N, with R14D; source: E. coli Rossetta2 (DE3), purified (ion exchange, SEC)
T3 sequence (looked up): T1 sequence (looked up) with R14D

Ube2N/Ube2V1 complex = target: T4, Ube2N/Ube2V1 complex (UniProt P61088 1-152; Q13404 1-147); experiment: as above
T4 construct: Ube2N, ubiquitin-conjugating enzyme E2 N; Ube2V1, ubiquitin-conjugating enzyme E2 variant 1; also called Ube2N/V1; source: E. coli Rossetta2 (DE3), each purified, mixed in stoichiometric amounts, complex isolated by SEC

Ube2W = target: T5, Ube2W (UniProt Q96B02 1-151); experiment: as above
T5 construct: Ube2W, ubiquitin-conjugating enzyme E2 W; source: E. coli Rossetta2 (DE3), purified (ion exchange, SEC)

Ube2N^A98T = target: T6, Ube2N^A98T (UniProt P61088 1-152, A98T); experiment: as above
T6 construct: Ube2N, ubiquitin-conjugating enzyme E2 N, with A98T; source: E. coli Rossetta2 (DE3), purified (ion exchange, SEC)
T6 sequence (looked up): T1 sequence (looked up) with A98T

Ube2N [2] = target: T1, Ube2N; experiment: as above
Ube2D2 = target: T7, Ube2D2 (UniProt P62837 1-147); experiment: as above
T7 construct: Ube2D2, ubiquitin-conjugating enzyme E2 D2; also called wtUbe2D2; wild-type Ube2D2; source: E. coli Rossetta2 (DE3), purified (ion exchange, SEC)

Ube2N^R14E = target: T8, Ube2N^R14E (UniProt P61088 1-152, R14E); experiment: as above
T8 construct: Ube2N, ubiquitin-conjugating enzyme E2 N, with R14E; source: E. coli Rossetta2 (DE3), purified (ion exchange, SEC)
T8 sequence (looked up): T1 sequence (looked up) with R14E

Ube2N^R14A = target: T9, Ube2N^R14A (UniProt P61088 1-152, R14A); experiment: as above
T9 construct: Ube2N, ubiquitin-conjugating enzyme E2 N, with R14A; source: E. coli Rossetta2 (DE3), purified (ion exchange, SEC)
T9 sequence (looked up): T1 sequence (looked up) with R14A

Ube2N [3] = target: T1, Ube2N; experiment: ITC; ZNRF1^CTD in the cell, Ube2N in the syringe; 25°C; Na-phosphate pH 8.0, 300 mM NaCl; single site model

T4 sequence (Q13404 whole entry, one chain of several): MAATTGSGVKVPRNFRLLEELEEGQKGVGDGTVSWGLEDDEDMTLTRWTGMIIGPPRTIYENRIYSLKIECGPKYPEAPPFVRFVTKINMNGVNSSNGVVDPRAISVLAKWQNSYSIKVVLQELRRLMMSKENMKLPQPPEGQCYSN

Kd (Ube2N [1]): 225 nM
Kd (Ube2N^S96R): 203 nM
Kd (Ube2N^R14D): 948 nM
Kd (Ube2N/Ube2V1 complex): 39.2 nM
Kd (Ube2W): 1090 nM
Kd (Ube2N^A98T): 408 nM
Kd (Ube2N [2]): 38.8 nM
Kd (Ube2D2): 1130 nM
Kd (Ube2N^R14E): 1080 nM
Kd (Ube2N^R14A): 320 nM
Kd (Ube2N [3]): 171 nM
B1: ZNRF1^CTD (C-terminal domain of ZNRF1, residues 139–227) (domain or fragment, UniProt Q8ND25 139-227, looked up)
chain: SHSGFKCPICSKSVASDEMEMHFIMCLSKPRLSYNDDVLTKDAGECVICLEELLQGDTIARLPCLCIYHKSCIDSWFEVNRSCPEHPAD
notes: ZNRF1, RING E3 ubiquitin ligase, residues 139-227 of the full-length protein (ZnF and RING domains); also called ZNRF1 C-terminal domain; ZRNF1^CTD; source: E. coli Rossetta2 (DE3), purified (HisTrap, SEC)
